Measured values: FireProtDB (doi:10.1016/j.jmb.2005.06.006)
Values joined by “and” are separate entries in the source; they are usually repeats but may differ in a detail not shown here. Equal entries are not always repeated.

B1: Tryptophan synthase alpha chain, P0A877 (parent)
chain: MERYESLFAQLKERKEGAFVPFVTLGDPGIEQSLKIIDTLIEAGADALELGIPFSDPLADGPTIQNATLRAFAAGVTPAQCFEMLALIRQKHPTIPIGLLMYANLVFNKGIDEFYAQCEKVGVDSVLVADVPVEESAPFRQAALRHNVAPIFICPPNADDDLLRQIASYGRGYTYLLSRAGVTGAENRAALPLNHLVAKLKEYNAAPPLQGFGISAPDQVKAAIDAGAAGAISGSAIVKIIEQHINEPEKMLAALKVFVQPMKAATRS

Variants of: B1
Details: Escherichia coli (strain K12); pH 7.8; 25 °C; Urea; CD; Potassium phosphate 10 mM; transition: 3; structure 1WQ5; whole UniProt chain shown

| Variant | ddG of mutation (higher = less stable) | denaturant m value | unfolding free energy |
| --- | --- | --- | --- |
| MERYESLFAQLKERKEGAFVPFVTLGDPGIEQSLKIIDTLIEAGADALELGIPFSDPLADGPTIQNATLRAFAAGVTPAQCFEMLALIRQKHPTIPIGLLMYANLVFNKGIDEFYAQCEKVGVDSVAVADVPVEESAPFRQAALRHNVAPIFICPPNADDDLLRQIASYGRGYTYLLSRAGVTGAENRAALPLNHLVAKLKEYNAAPPLQGFGISAPDQVKAAIDAGAAGAISGSAIVKIIEQHINEPEKMLAALKVFVQPMKAATRS [L127A] | 0.73 kcal/mol and 0.55 kcal/mol | 2.55 kcal/mol/M and 1.1 kcal/mol/M | 5.4 kcal/mol and 4.17 kcal/mol |
| MERYESLFAQLKERKEGAFVPFVTLGDPGIEQSLKIIDTLIEAGADALELGIPFSDPLADGPTIQNATLRAFAAGVTPAQCFEMLALIRQKHPTIPIGLLMYANLVFNKGIDEFYAQCEKVGVDSVLVADVPVEESAPFRQAALRHNVAPIFICPPNADDDLLRQIASYGRGYTYALSRAGVTGAENRAALPLNHLVAKLKEYNAAPPLQGFGISAPDQVKAAIDAGAAGAISGSAIVKIIEQHINEPEKMLAALKVFVQPMKAATRS [L176A] | 2.88 kcal/mol and 1.13 kcal/mol | 2.16 kcal/mol/M and 1.01 kcal/mol/M | 3.25 kcal/mol and 3.59 kcal/mol |
| MERYESLFAQLKERKEGAFVPFVTLGDPGIEQSLKIADTLIEAGADALELGIPFSDPLADGPTIQNATLRAFAAGVTPAQCFEMLALIRQKHPTIPIGLLMYANLVFNKGIDEFYAQCEKVGVDSVLVADVPVEESAPFRQAALRHNVAPIFICPPNADDDLLRQIASYGRGYTYLLSRAGVTGAENRAALPLNHLVAKLKEYNAAPPLQGFGISAPDQVKAAIDAGAAGAISGSAIVKIIEQHINEPEKMLAALKVFVQPMKAATRS [I37A] | 1.41 kcal/mol and 3.01 kcal/mol |  | 4.72 kcal/mol and 1.71 kcal/mol |
| MERYESLFAQLKERKEGAFVPFVTLGDPGIEQSLKIIDTLIEAGADALELGIPFSDPLADGPTIQNATLRAFAAGVTPAQCFEMLALIRQKHPTIPIGALMYANLVFNKGIDEFYAQCEKVGVDSVLVADVPVEESAPFRQAALRHNVAPIFICPPNADDDLLRQIASYGRGYTYLLSRAGVTGAENRAALPLNHLVAKLKEYNAAPPLQGFGISAPDQVKAAIDAGAAGAISGSAIVKIIEQHINEPEKMLAALKVFVQPMKAATRS [L99A] | 1.69 kcal/mol and 2.38 kcal/mol | 2.39 kcal/mol/M and 0.94 kcal/mol/M | 4.44 kcal/mol and 2.34 kcal/mol |
